Reference: the Human Domainome abundance scans (Beltran et al. 2025)

B1: Transcription factor SOX-11, residues 50 to 117; numbered along this chain, P35716 (parent)
chain: KRPMNAFMVWSKIERRKIMEQSPDMHNAEISKRLGKRWKMLKDSEKIPFIREAERLRLKHMADYPDYK
B2: Cell division cycle and apoptosis regulator protein 1, residues 625 to 674; numbered along this chain, Q8IX12 (parent)
chain: ISTPTHWSKLDPKTMKVNDLRKELESRALSSKGLKSQLIARLTKQLKVEE

Variants of: B1
Assay: abundance fitness (aPCA) (normalised: wild type 0, dead -1); higher = more abundant; growth selection in yeast, the domain comes from the species named
Conditions: Homo sapiens

Abundance fitness, by site and new letter:
K68: T -0.139, N 0.163, L -0.642, S -0.093, C 0.354, Y 0.314
Y67: L 0.098, M 0.222, H 0.089, I -0.027, D 0.283, V -0.214, W 0.17, N 0.203, F -0.097, P 0.151, K -0.007, R -0.163, T -0.044, S 0.175

Variants of: B2
Assay: as above
Conditions: Homo sapiens

Abundance fitness of substitutions, site by site:
P4: I 0.029, N -0.133, C 0.139, R 0.075, V -0.033, Y 0.012, G 0.1, W -0.142, Q -0.108, H -0.206, S 0.15, E -0.052, T -0.035, D -0.074, K 0.112, F -0.072
W7: M -0.122, A -0.088, I -0.258, F -0.022, P -0.101, T -0.103, V -0.157, E -0.139, Q -0.279, D -0.197, L -0.223, G -0.187, N -0.29, S -0.104, R -0.178, Y -0.051, C -0.112, K -0.142
I1: R -0.458, Y -0.206, W -0.478, T -0.145, G -0.261, K -0.257, M -0.123, D -0.641, V -0.11, N -0.33, L -0.3, C -0.398, A 0.049, F 0.207, E -0.314
L10: A -0.474, C -0.338, H -0.701, Q -0.516, M -0.107, E -0.704, D -0.748, N -0.516, W -0.953, I -0.203, R -0.593, K -0.538, Y -0.709, G -0.562, P -0.606, S -0.577, F -0.535, V -0.231
V17: W -0.092, S -0.036, G -0.146, Y -0.054, P -0.182, N 0.249, Q -0.082, M 0.065, K 0.022, D -0.114, R -0.139, A -0.093, I 0.013, F -0.071, H -0.165, L 0.026, C 0.115
N18: Q 0.085, D -0.038, K 0.124, Y -0.036, S 0.081, R 0.079, M 0.06, A 0.072, F -0.056, L 0.113, C 0.051, P 0.072, G 0.019, I 0.077, W -0.015, H 0.042, V 0.05
T3: M -0.004, G -0.096, I -0.114, A -0.203, Y 0.124, F -0.121, H -0.288, L -0.037, Q -0.197, C -0.025, D -0.136, R -0.076, K 0.042, W -0.252, P -0.162, E -0.007
T5: C -0.483, Y -0.423, W -0.616, S 0.042, H -0.234, M -0.067, E -0.082, N -0.42, F -0.772, D -0.689, R -0.103, P -0.384, A 0.026, K -0.111, Q -0.091, I -0.332, G -0.225
M15: S -0.75, A -0.543, Q -0.679, W -0.899, D -0.775, L -0.172, E -0.949, R -0.758, I -0.711, P -0.83, K -0.668, V -0.745, H -0.996, N -0.942, Y -0.926, G -0.94, F -1.02
S2: V 0.06, M 0.127, F 0.103, W -0.083, P -0.175, G -0.003, H -0.037, Q -0.06, K 0.096, A -0.072, C 0.029, T 0.079, I 0.18, R -0.021, D 0.064, N 0.23
K16: L -0.061, H 0.061, D -0.068, I -0.127, E -0.066, V -0.228, M -0.24, G -0.059, F -0.191, N 0.033, A -0.227, P -0.15, S -0.011, W -0.354, Y -0.153, C -0.048, T -0.142, R -0.173
K13: C -0.302, Q -0.13, D -0.16, P -0.187, N 0.081, V -0.04, I -0.052, S -0.147, L -0.241, T -0.13, A -0.094, M 0.002, R -0.221, Y -0.23, W -0.474, F -0.308, E -0.195, G -0.255, H -0.135
S8: Y -0.173, R -0.189, A -0.081, F -0.338, N -0.09, E -0.006, H -0.074, W -0.272, C -0.007, D -0.126, K -0.061, G -0.036, T -0.113, M -0.254, I -0.407, V -0.304, P -0.616, Q -0.395
K9: T -0.125, L -0.066, P -0.576, H -0.091, V -0.129, C -0.243, G -0.154, F -0.317, W -0.235, E -0.068, D -0.084, Y -0.158, A -0.016, R 0.009, N -0.136, M -0.077, Q 0.04, I -0.254, S -0.166
D19: A -0.015
H6: I -0.014, V -0.003, L 0.067, F -0.037, G -0.132, Y -0.042, E 0.062, K -0.008, M -0.036, W -0.135, S -0.056, P 0.044, T -0.05, C -0.065, R -0.092, A 0.014, N 0.054, Q -0.062, D 0.009
T14: H 0.135, C -0.074, Y -0.05, S -0.005, L -0.131, A -0.019, I 0.007, M -0.013, K 0.257, N 0.038, D -0.061, F -0.204, P -0.798, E -0.011, Q -0.022, V -0.029, R 0.178
D11: S 0.051, Q 0.072, G -0.335, C 0.093, A 0.043, V -0.038, P -0.738, R 0.078, M 0.028, E 0.071, N 0.054, H 0.074, W -0.109, L -0.054, Y -0.036, I 0.066, T 0.218, K 0.154
P12: T -0.207, Y -0.74, Q -0.749, S -0.665, W -0.488, M -0.141, C -0.223, L -0.189, A -0.142, F -0.762, E -0.754, R -0.89, N -0.965, I -0.324, K -0.875, D -1.02, H -0.865, G -0.655
